These results are taken from US20120122958, “TRANSCRIPTIONAL REPRESSION LEADING TO PARKINSON'S DISEASE” (published 2012).

The target in this series is PARIS (ZNF746) (Homo sapiens, UniProt Q6NUN9 SEQ:1-644). Nature of the series: EMSA; competed by unlabeled WT oligo. Conditions: tags: GST; label: 32P. Background: Mobility shift assays separate free from complexed probe on a gel.
Chain of PARIS (ZNF746) (Q6NUN9 whole entry): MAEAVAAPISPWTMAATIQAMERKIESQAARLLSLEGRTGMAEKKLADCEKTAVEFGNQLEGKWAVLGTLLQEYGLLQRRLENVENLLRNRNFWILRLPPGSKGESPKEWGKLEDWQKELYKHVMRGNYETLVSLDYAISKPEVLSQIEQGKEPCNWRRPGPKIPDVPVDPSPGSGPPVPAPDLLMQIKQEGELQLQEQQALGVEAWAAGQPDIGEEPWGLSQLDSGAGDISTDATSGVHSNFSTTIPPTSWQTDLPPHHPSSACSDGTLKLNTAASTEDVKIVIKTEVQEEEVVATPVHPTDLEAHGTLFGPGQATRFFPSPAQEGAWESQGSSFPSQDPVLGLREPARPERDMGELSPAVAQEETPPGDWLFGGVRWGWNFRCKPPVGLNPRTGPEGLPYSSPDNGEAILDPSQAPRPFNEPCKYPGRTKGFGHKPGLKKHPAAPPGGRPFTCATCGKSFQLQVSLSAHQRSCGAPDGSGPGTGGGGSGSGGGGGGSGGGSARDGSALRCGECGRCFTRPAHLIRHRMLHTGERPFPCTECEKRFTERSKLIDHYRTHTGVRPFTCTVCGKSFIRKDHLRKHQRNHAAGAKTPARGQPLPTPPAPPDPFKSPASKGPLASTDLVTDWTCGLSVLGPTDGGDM

B1: IRS2-WT (dsDNA)
DNA 1: ACATACAGGCTATTTTGTTGATTAAAC
DNA 2: GTTTAATCAACAAAATAGCCTGTATGT
B1: the binding result is “binds”.

B2: IRS3-WT (dsDNA)
DNA 1: GCCACTTGCTTGTTTTGGAAGGAAAAT
DNA 2: ATTTTCCTTCCAAAACAAGCAAGTGGC
In the case of B2, the binding result is reported as “binds”.

B3: IRS1-WT (dsDNA)
DNA 1: AGTGTGTTGGTATTTTTCCCTCAGTTC
DNA 2: GAACTGAGGGAAAAATACCAACACACT
Turning to B3, the binding result is “binds”.
